We go through 8 molecules from doi:10.64898/2025.12.22.695782.

Holding throughout (assay): NMR HSQC titration
Data set [1] has as its target T1, TDP-43 CTD WT (Homo sapiens, UniProt Q13148 267-414).
For data set [2], the target named is T1, TDP-43 CTD WT. The source holds these as a separate data set.
Data set [3] deals with T1, TDP-43 CTD WT. This is another data set of the same source.
Data set [4] has as its target T1, TDP-43 CTD WT. The source holds these as a separate data set.
Data set [5] addresses T1, TDP-43 CTD WT. This is another data set of the same source.
The target in data set [6] is T1, TDP-43 CTD WT. This is another data set of the same source.
Data set [7] has as its target T1, TDP-43 CTD WT. This is another data set of the same source.

Like-named read-outs stand apart in the source and are kept apart here.

T1 sequence (Q13148 267-414): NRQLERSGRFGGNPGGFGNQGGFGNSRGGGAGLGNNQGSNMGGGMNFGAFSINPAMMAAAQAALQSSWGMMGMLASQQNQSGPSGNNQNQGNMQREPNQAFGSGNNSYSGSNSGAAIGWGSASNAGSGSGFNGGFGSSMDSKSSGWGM

As for CACCTTCCCCACCCTCCCCACCCTCCCCATAAGC (structured_DNA) [c-Myc I-motif], in the data set with TDP-43 CTD WT [1], the binding result was “binds”.

As to TGTGTGTGTGTGTGTGTGTGTGTGTGTGTGTGTG (ssDNA) [(TG)17], in the data set with TDP-43 CTD WT [2], the binding result is “binds”.

For the molecule UUUUUUUUUUUU (ssDNA, deoxyuridine (DNA backbone) throughout) [dU12], in the data set with TDP-43 CTD WT [3], the binding result is recorded as “binds”.

As to GCTTATGGGGAGGGTGGGGAGGGTGGGGAAGGTG (structured_DNA) [c-Myc G4], the binding result in the data set with TDP-43 CTD WT [4] is “binds”.

Turning to TTTTTTTTTTTT (ssDNA) [dT12], in the data set with TDP-43 CTD WT [5], the binding result was “binds”.

With CCCCCCCCCCCC (structured_DNA) [dC12], in the data set with TDP-43 CTD WT [6], the binding result is recorded as “binds”.

Regarding AAAAAAAAAAAA (ssDNA) [dA12], the binding result in the data set with TDP-43 CTD WT [7] is reported as “binds”.

As to GGGGGGGGGGGG (structured_DNA) [dG12], the binding result in the data set with TDP-43 CTD WT [6] is listed as “binds”.
